Data: US7985736B2, “High throughput screen utilizing newly discovered intramolecular neuronal calcium channel interactions to discover new analgesics” (The John Hopkins University, priority 2004, dated 2011)
“And” between values parts separate entries of the source, which are not always exact repeats. Equal values may be shown once.

How the values were obtained:
I-II loop of α1C (I-IIC) = biological target: T1, I-II loop of α1C (I-IIC) (Oryctolagus cuniculus, UniProt P15381); experiment: Yeast two-hybrid assay, NT peptides versus I-IIC; assay type: binding, rabbit; conditions: NT segment in pGBKT7, I-IIC in pGADT7
T1 construct: I-IIC (436-554)/pGBKT7; expressed in transfected cells; host or cells: AH109 yeast
Excerpt: For yeast two-hybrid assays, a PCR fragment encoding one partner was fused, in-frame, with the GAL4 DNA binding domain (BD) in pGBKT7 (Clontech, Palo Alto, Calif.). The other element was fused, in-frame, with the GAL4 activation domain (AD) in pGADT7. For specific residues, see Supplemental Data (section 2). For electrophysiology, NT peptides lacking fluorophore tag were PCR amplified and cloned in pcDNA3. NTB peptide residues, 1-95; NTC residues, […]. Throughout, all segments subject to PCR or QuikChange were verified in their entirety by sequencing.
The Matchmaker GAL4 Two-Hybrid System 3 was used (Clontech, Palo Alto, Calif.). AH109 yeast were transformed with pGBKT7/pGADT7-based constructs (Yeastmaker Yeast Transformation System 2 kit, Clontech). After 5-8 days, growth on -leucine/-trytophan plates confirmed transformation of both plasmids. […]
As a ‘medium’ stringency assay, expression of the lacZ gene was tested for encoding β-galactosidase, performing a filter lift with application of blue chromogenic substrate (Clontech-Laboratories, 1999). […] The percentage of colonies that turned blue in the filter lift assay, along with the percentage of colonies that survived on high stringency plates, was recorded for each pairing. […]

[1] = biological target: T2, N-type (α1B) Ca2+ channels (Homo sapiens, UniProt Q00975); experiment: Whole-cell G/Q analysis and prepulse facilitation of recombinant N-type channels coexpressed with peptide in HEK293 cells; assay type: cell-based; conditions: for Effect on G/Q slope (Gmax-Qmax relation), with Gβγ: peptide coexpressed with channels and Gβγ, Gmax after 100 mV prepulse
T2 construct: transferred by EcoRI and Bgl II sites into the full-length α1B construct; expressed in transfected cells; host or cells: HEK293
Excerpt: FIG. 3A illustrates an approach for N-type channels without Gβγ coexpression. Exemplar currents activated quickly and were barely facilitated by strong prepulse depolarization (FIG. 3A, left). The slight residual prepulse facilitation reflects basal endogenous Gβγ activation. To estimate open probability, two intermediary parameters were specified. First, to gauge the number of channels in a cell (Nchannel), the channel gating current at the reversal potential for ionic current were isolated (FIG. 3A, middle left) (Jones et al., 1999). The area under this current yields the maximal gating charge Qmax, where Qmax=Nchannel×qmax, and qmax is the maximal gating charge per channel. Second, Gmax for a given cell, the maximal ionic current conductance determined as the slope of the peak current-voltage relation at depolarized potentials were determined (FIG. 3A, middle right, line). Here and throughout, current-voltage relations were determined after a 100 mV prepulse, which transiently relieves all G protein inhibition (Colecraft et al., 2000), thus eliminating these inhibitory effects in the estimate of Gmax. Accordingly, Gmax=Nchannel×Po,max×g, where Po,max is the maximal channel open probability at saturating de-polarization, and g is the conductance of a single open channel. In combination, then, a plot of Gmax versus Qmax for multiple cells ([…]) would describe a linear relation with slope equal to Po,max×g/qmax. Because g and qmax are unchanged by G protein modulation (Colecraft et al., 2001; Jones et al., 1997; Patil et al., 1996), this slope (G/Q=0.44±0.03 nS/fC) is proportional to Po,max . . . FIG. 3B documents the supporting results for N-type channels coexpressed with Gβγ. Gmax determined after prepulse de-polarization, when plotted against Qmax, specifies an identical slope to that without Gβγ (FIG. 3B, right, G/Q=0.43±0.04 nS/fC). […] Free NTB peptide with α1B channels. Initially, an NTB-CFP peptide was employed to visually confirm expression was coexpressed. […] By contrast, coexpressing channels with NTB-CFP and Gβγ produced remarkable effects (FIG. 3D). […] More telling were small ionic current amplitudes despite gating current magnitudes on par with controls (FIG. 3D, middle panels). Consequently, there was a significant ^w6-fold depression of the Gmax-Qmax plot (FIG. 3D, right). If NTB-CFP were simply chelating Gβγ (FIG. 2C), the G/Q slope would be unchanged from control. Instead, the suppression of G/Q indicates constitutive inhibition of channel opening.
Cells were transiently transfected and cultured in 10 cm plates (Brody et al., 1997). For 2+Ca^2+ channels, 8 μg was used of each of cDNAs of the desired a1, rat brain β2a (Perez-Reyes et al., 1992), and rat brain a^28 (Tomlinson et al., 1993) subunits; along with 2 μg T-antigen cDNA. N-type α1B, human origin (NM000718); L-type α1C, rabbit (Wei et al., 1991) (X15539). Gβγ coexpressed with 4 μg each of Gβ1 (Sugimoto et al., 1985) and Gγ2 (Gautam et al., 1990). For coexpression of N-terminal peptides, channel subunit cDNA reduced to 6 μg, while adding 14 μg peptide cDNA. For receptor experiments, 0.5 μg cDNA for m2R (below) applied with other cDNAs.
Whole-cell current records were made with Axopatch 200B (Axon Instruments, Calif.), 1-3 days posttransfection. Pipets, 1.5-3 MΩ before 60-75% series resistance compensation. Internal solution: 135 mM CsMeSO4, 5 mM CsCl, 10 mM EGTA, 10 mM HEPES, 1 mM MgCl2, and 4 mM MgATP. External solution: 150 mM TEAMeSO4, 10 mM HEPES, 2 mM CaCl2, and 1 mM MgCl2. During constitutive inhibition (or as noted for some chimeras), 20 mM BaCl2 was substituted for 2 mM CaCl2, and the resulting solution was diluted 1.08×. To compare across external solutions, a conversion factor of 3.18 was used. Currents and conductances with 20 mM Ba^2+ were thus scaled×1/3.18 to facilitate uniform comparison of values, as if all data had been collected with 2 mM Ca^2+. When applied, conversion is denoted by asterisk (*). […]

T2 sequence (Q00975 whole entry, other chains not shown): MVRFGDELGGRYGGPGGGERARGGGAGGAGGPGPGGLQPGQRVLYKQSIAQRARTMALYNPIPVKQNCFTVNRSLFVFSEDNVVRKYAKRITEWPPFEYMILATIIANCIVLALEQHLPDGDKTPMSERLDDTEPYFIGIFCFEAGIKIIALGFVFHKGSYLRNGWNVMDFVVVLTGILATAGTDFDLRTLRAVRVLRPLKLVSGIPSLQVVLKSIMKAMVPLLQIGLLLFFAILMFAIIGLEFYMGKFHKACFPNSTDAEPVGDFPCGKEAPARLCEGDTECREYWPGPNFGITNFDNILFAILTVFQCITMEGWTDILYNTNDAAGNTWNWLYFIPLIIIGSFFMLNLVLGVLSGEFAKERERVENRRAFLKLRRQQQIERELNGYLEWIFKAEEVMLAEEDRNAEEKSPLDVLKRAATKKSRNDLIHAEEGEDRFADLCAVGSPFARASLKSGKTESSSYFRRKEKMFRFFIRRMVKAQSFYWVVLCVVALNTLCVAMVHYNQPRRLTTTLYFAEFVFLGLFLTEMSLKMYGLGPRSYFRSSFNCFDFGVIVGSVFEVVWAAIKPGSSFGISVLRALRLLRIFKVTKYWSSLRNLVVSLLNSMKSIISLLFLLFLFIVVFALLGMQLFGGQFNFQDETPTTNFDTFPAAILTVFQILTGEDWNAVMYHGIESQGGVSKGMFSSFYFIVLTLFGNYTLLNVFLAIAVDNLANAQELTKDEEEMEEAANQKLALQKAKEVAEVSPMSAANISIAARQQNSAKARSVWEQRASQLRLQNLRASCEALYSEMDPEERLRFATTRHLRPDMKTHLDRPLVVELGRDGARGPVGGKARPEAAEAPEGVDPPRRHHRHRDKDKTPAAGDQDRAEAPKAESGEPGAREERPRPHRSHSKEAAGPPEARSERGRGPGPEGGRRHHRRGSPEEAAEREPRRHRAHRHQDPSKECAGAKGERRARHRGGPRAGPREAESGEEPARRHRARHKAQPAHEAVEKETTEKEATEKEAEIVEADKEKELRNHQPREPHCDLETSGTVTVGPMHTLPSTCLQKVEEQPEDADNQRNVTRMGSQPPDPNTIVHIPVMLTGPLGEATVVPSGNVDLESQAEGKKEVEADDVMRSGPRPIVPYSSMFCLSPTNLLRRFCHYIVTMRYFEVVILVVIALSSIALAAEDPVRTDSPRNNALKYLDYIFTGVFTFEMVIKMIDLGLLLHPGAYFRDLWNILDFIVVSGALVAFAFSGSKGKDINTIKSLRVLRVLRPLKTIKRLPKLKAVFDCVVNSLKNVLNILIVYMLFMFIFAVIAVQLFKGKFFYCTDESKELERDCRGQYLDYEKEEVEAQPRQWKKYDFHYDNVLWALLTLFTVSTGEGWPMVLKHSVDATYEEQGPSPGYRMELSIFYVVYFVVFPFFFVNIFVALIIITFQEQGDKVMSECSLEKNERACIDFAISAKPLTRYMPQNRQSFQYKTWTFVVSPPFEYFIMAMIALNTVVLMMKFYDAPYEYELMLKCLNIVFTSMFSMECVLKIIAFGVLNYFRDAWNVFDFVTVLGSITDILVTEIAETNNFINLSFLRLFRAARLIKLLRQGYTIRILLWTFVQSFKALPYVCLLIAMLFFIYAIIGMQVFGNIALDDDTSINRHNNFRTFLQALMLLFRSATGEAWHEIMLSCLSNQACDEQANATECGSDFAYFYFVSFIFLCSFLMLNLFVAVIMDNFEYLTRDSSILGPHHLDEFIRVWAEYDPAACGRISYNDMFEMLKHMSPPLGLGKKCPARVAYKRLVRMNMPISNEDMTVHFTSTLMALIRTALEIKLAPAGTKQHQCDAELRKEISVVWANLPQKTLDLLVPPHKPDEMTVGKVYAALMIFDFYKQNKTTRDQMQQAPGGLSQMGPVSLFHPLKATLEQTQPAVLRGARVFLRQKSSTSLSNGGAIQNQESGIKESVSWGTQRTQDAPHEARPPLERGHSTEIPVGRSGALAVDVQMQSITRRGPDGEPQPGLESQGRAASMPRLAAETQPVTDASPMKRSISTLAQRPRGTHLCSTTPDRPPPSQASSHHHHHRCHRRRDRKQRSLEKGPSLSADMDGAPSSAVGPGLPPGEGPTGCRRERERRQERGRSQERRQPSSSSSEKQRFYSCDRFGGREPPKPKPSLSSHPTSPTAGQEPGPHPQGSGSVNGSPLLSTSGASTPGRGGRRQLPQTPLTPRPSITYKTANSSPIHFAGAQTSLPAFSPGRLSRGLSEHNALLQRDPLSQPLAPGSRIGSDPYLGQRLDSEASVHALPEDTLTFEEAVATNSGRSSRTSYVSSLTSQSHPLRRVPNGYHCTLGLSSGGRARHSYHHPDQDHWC
T2 sequence (P54290 25-944 partner limits assumed, other chains not shown): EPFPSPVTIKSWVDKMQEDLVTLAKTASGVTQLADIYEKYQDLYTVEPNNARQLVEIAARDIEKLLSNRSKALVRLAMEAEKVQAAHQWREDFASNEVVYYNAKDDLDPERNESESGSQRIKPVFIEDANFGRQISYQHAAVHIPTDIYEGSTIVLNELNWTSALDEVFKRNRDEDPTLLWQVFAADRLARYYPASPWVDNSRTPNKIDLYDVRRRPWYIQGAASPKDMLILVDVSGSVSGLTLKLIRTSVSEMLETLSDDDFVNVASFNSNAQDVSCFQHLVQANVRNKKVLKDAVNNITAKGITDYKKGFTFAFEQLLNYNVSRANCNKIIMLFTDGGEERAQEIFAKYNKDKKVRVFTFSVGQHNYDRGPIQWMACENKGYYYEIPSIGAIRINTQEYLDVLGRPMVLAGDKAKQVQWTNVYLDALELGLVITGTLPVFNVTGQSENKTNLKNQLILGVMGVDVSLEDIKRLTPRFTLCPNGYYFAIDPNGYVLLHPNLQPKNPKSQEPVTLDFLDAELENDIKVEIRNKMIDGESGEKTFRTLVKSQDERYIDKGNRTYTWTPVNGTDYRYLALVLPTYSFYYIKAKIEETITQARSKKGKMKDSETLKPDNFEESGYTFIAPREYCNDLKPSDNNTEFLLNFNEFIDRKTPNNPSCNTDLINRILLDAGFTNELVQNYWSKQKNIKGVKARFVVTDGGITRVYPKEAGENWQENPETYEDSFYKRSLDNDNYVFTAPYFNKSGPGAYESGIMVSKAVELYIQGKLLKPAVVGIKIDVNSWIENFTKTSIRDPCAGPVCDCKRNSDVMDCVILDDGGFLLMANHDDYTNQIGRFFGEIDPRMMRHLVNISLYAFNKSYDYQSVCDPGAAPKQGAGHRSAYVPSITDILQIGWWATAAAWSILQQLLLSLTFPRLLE
T2 sequence (P54290 945-1091 partner limits assumed, other chains not shown): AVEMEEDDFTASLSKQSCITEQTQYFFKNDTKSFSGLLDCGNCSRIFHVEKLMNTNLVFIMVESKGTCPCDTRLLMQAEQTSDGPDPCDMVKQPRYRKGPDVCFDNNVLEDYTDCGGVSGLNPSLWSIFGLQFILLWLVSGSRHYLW
T1 sequence (P15381 436-554): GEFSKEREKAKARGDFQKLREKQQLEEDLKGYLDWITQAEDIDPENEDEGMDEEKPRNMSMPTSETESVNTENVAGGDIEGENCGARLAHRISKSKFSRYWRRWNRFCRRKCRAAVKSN

## NTC: NH3 terminus of L-type channel α1C subunit, free peptide [reference compound]
I-II loop of α1C (I-IIC)
  Interaction with I-IIC (yeast two-hybrid): failed to reveal an association
[1]
  Effect on G/Q slope (Gmax-Qmax relation), with Gβγ: had no effect
[1]; peptide coexpressed with channels, absent Gβγ
  Effect on G/Q slope and currents, without Gβγ: had no effect

B1: NTB: NH3 terminus of N-type channel α1B subunit, residues 1-95, expressed as free peptide (SEQ ID NO.: 1) (protein, listed as Homo sapiens)
chain: MVRFGDELGGRYGGPGGGERARGGGAGGAGGPGPGGLQPGQRVLYKQSIAQRARTMALYNPIPVKQNCFTVNRSLFVFSEDNVVRKYAKRITEWP
I-II loop of α1C (I-IIC)
  Interaction with I-IIC (yeast two-hybrid): failed to reveal an association
[1]
  DF (prepulse facilitation): 2.64±0.18
  Induction time of constitutive inhibition after receptor activation: 10 to 15 min and ~10 min
  Reversal of constitutive inhibition on removal of carbachol: did not reverse inhibition
  Effect on G/Q slope (Gmax-Qmax relation), with Gβγ: identical to those obtained with NTB-CFP
[1]; channels + m2R + NTB peptide, 0 min CCH
  Functional profile with m2R, absent carbachol: indistinguishable from control N-type channels
[1]; channels + m2R + free NTB peptide, carbachol ≧30 min (50 μM CCH)
  G/Q slope with m2R and carbachol: marked suppression of the G/Q slope
[1]; deduced from DF˜4 via FIG. 7B model, free NTB with Gβγ
  Conversion to constitutively reluctant channels: ~75%
[1]; free NTB with Gβγ
  DF (degree of prepulse facilitation): ~4
